From patent publication US20210395318A1
“And” between values parts separate entries of the source, which are not always exact repeats. Equal values may be shown once.

Target: human CD40 on primary human B cells or human monocyte-derived dendritic cells (human) (UniProt P25942)
Experiment: cell-based or functional assay

Chain of human CD40 on primary human B cells or human monocyte-derived dendritic cells (human) (P25942 21-277 H80K/K81H limits assumed): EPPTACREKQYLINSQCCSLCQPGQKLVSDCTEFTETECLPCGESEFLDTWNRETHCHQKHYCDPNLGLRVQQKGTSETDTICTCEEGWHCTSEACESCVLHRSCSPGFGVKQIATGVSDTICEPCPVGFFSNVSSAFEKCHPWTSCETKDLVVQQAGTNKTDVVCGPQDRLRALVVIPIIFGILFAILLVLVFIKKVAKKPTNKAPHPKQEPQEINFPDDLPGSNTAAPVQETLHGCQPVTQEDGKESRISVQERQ

Substance: anti-CD40 monoclonal antibody (corresponds to sequence 21.4.1 of U.S. Pat. No. 7,338,660 B2)
- EC50, % CD86, human B cells with FAP-CHO cells, w HSA: 0.88 nM and 0.3 nM
- EC50, % CD86, human B cells with FAP-CHO cells, w/o HSA: 1.9 nM and 0.51 nM
- EC50, MFI CD86, human B cells with FAP-CHO cells, w HSA: 0.51 nM and 2.05 nM
- EC50, MFI CD86, human B cells with FAP-CHO cells, w/o HSA: 1.13 nM and 4.73 nM
- Efficacy [MFI at highest dose], MFI CD86, human B cells with FAP-CHO cells, w HSA: 1530 MFI and 1870 MFI
- Efficacy [MFI at highest dose], MFI CD86, human B cells with FAP-CHO cells, w/o HSA: 1340 MFI and 2060 MFI
- Efficacy [MFI at highest dose], MFI CD86, human B cells with WT-CHO cells (no FAP), w HSA: 1900 MFI and 1470 MFI
- Efficacy [MFI at highest dose], MFI CD86, human B cells with WT-CHO cells (no FAP), w/o HSA: 2050 MFI and 1390 MFI
